Assay [1] concerns the target T1, 天然人白介素-33 (natural human interleukin-33 from HFL-1 cell lysate) (human, UniProt O95760 1-270, limits assumed).
T1 sequence (looked up): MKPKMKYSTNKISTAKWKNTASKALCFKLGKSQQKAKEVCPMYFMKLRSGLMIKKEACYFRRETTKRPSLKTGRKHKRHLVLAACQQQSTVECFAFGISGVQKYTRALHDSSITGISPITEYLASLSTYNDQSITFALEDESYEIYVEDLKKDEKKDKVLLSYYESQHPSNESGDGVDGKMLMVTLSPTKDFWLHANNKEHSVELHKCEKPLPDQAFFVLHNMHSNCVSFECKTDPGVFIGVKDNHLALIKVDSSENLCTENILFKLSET
The assay can be described thus: cell-based or functional assay.

Assay [2] addresses T2, 人白介素-33 (human interleukin-33, recombinant) (human, UniProt O95760 112-270).
T2 sequence: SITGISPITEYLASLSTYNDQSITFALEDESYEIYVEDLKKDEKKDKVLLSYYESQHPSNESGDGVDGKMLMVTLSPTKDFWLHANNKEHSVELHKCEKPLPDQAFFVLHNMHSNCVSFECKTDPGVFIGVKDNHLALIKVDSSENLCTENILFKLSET
The experiment in a line: cell-based or functional assay.

B1: QX007N(HZD78-70) (antibody, V domains shown)
VH: EVQLVESGGGLVQPGGSLRLSCAASGFSLSSYHMIWVRQAPGKGLEWVGVIYPNSNIYYATWAKGRFTISRDNSKNTLYLQMNSLRAEDTAVYYCARTIYVHVYSALSIWGQGTLVTVSS
VL: AFQMTQSPSSVSASVGDRVTITCQASESVLNEVSWYQQKPGKAPKLLIYFASKLASGVPSRFSGSGSGTDFTLTISSLQPEDFATYYCQQDWSMDNIDNAFGGGTKVEIKR
For the molecule B1, the “中和天然人白介素-33诱导HEK Blue IL-33细胞中NF-κB/AP-1信号转导 (SEAP, OD630nm), IC50” value in assay [1] turned out to be 3.91 ng/mL. For the same molecule, in assay [2], the “中和人白介素-33诱导人全血释放IFN-γ, IC50” value came to 16 ng/mL; the “中和人白介素-33诱导的KU812细胞释放IL-5 (IL-5 ELISA), IC50” value was determined as 5.87 ng/mL; the “中和重组人白介素-33诱导HEK Blue IL-33细胞中NF-κB/AP-1信号转导 (SEAP, OD630nm), IC50” value came to 6.67 ng/mL.

(Values after patent CN114014929A (JIANGSU QYUNS THERAPEUTICS CO LTD, dated 2022).)
